A short description of series [1]: Western densitometry, % in media, 48 h. As to conditions: control: wild type.
Series [2] is described as follows: secreted protein in media at 37 °C, Western. The settings on record: glycan lost; control: wild type.
Series [3] in a line: AHA pulse-chase, intracellular protein. As to conditions: glycan lost; control: wild type.
The nature of series [4]: Western blot of conditioned media. As to conditions: control: untreated. On the technique in general: In western blotting, separated proteins are transferred to a membrane and probed.
The nature of series [5]: Western densitometry, % in media. As to conditions: glycan gained; control: wild type.

B1: human Rspo2: N160Q (protein)
parent chain: MQFRLFSFALIILNCMDYSHCQGNRWRRSKRASYVSNPICKGCLSCSKDNGCSRCQQKLFFFLRREGMRQYGECLHSCPSGYYGHRAPDMNRCARCRIENCDSCFSKDFCTKCKVGFYLHRGRCFDECPDGFAPLEETMECVEGCEVGHWSEWGTCSRNNRTCGFKWGLETRTRQIVKKPVKDTILCPTIAESRRCKMTMRHCPGGKRTPKAKEKRNKKKKRKLIERAQEQHSVFLATDRANQ
With B1, the “expression_or_secretion, other: percent of total protein in media” value (from here on “expression_or_secretion, other: percent”) in series [1] (glycan lost) is “decreases, 18% vs 34%”. Further, in series [2], the “degradation_or_half_life, half_life” value is “decreases, 12 vs 36”.

B2: human Rspo2: E136N (protein)
parent chain: B1 parent chain
As for B2, in series [1] (glycan gained), the “expression_or_secretion, other: percent” value is listed as “increases, two-fold vs 34%”.

B3: human Rspo1 (R-spondin 1): N137Q (protein)
parent chain: MRLGLCVVALVLSWTHLTISSRGIKGKRQRRISAEGSQACAKGCELCSEVNGCLKCSPKLFILLERNDIRQVGVCLPSCPPGYFDARNPDMNKCIKCKIEHCEACFSHNFCTKCKEGLYLHKGRCYPACPEGSSAANGTMECSSPAQCEMSEWSPWGPCSKKQQLCGFRRGSEERTRRVLHAPVGDHAACSDTKETRRCTVRRVPCPEGQKRRKGGQGRRENANRNLARKESKEAGAGSRRRKGQQQQQQQGTVGPLTSAGPA
In the case of B3, the “degradation_or_half_life, half_life” value is listed as “decreases, 0.6 vs 0.9” in series [3] and “no change, ~48 vs >48” in series [2]. In addition, the “expression_or_secretion, other: percent” value in series [1] (glycan lost) is reported as “decreases, 32% vs 56%”.

B4: human Rspo1 (R-spondin 1): castanospermine (protein)
parent chain: B3 parent chain
For the protein B4, the expression_or_secretion result in series [4] (glycan changed form) is given as “decreases”.

B5: human Rspo1 (R-spondin 1): Q163N/L165T (protein)
parent chain: B3 parent chain
With B5, in series [5], the “expression_or_secretion, fold_change” value is reported as “increases”.

B6: human Rspo1 (R-spondin 1): tunicamycin (protein)
parent chain: B3 parent chain
On to B6, for which the expression_or_secretion entry in series [4] (glycan lost) is recorded as “decreases”.

B7: human Rspo3: N137Q (protein)
parent chain: MHLRLISWLFIILNFMEYIGSQNASRGRRQRRMHPNVSQGCQGGCATCSDYNGCLSCKPRLFFALERIGMKQIGVCLSSCPSGYYGTRYPDINKCTKCKADCDTCFNKNFCTKCKSGFYLHLGKCLDNCPEGLEANNHTMECVSIVHCEVSEWNPWSPCTKKGKTCGFKRGTETRVREIIQHPSAKGNLCPPTNETRKCTVQRKKCQKGERGKKGRERKRKKPNKGESKEAIPDSKSLESSKEIPEQRENKQQQKKRKVQDKQKSVSVSTVH
In the case of B7, the “expression_or_secretion, other: percent” value in series [1] (glycan lost) is listed as “decreases, 44% vs 67%”. For the same protein, the “degradation_or_half_life, half_life” value in series [2] was “no change, >48 vs >48”.

B8: human Rspo3: tunicamycin (protein)
parent chain: B7 parent chain
For the protein B8, in series [4] (glycan lost), the expression_or_secretion result is recorded as “decreases”.

The values are drawn from publication PMC4926470.
